Target: the molecule itself
Assay: native gel or EMSA; 5 µg holoprotein on a native 6% PAGE gel, 4 °C, 100 V, 3 h, Coomassie; dimerisation

Protein	binding result
phyB-GFP FL holoprotein (Pichia pastoris purified) (receptor, Arabidopsis, UniProt P14713 1-1172, looked up, holoprotein (chromophore bound), phytochrome B (phyB), Arabidopsis, full length; the host named for this assay is Pichia pastoris; source: Pichia pastoris, purified; not shown: GFP, C-terminal, kept) MVSGVGGSGGGRGGGRGGEEEPSSSHTPNNRRGGEQAQSSGTKSLRPRSNTESMSKAIQQYTVDARLHAVFEQSGESGKSFDYSQSLKTTTYGSSVPEQQITAYLSRIQRGGYIQPFGCMIAVDESSFRIIGYSENAREMLGIMPQSVPTLEKPEILAMGTDVRSLFTSSSSILLERAFVAREITLLNPVWIHSKNTGKPFYAILHRIDVGVVIDLEPARTEDPALSIAGAVQSQKLAVRAISQLQALPGGDIKLLCDTVVESVRDLTGYDRVMVYKFHEDEHGEVVAESKRDDLEPYIGLHYPATDIPQASRFLFKQNRVRMIVDCNATPVLVVQDDRLTQSMCLVGSTLRAPHGCHSQYMANMGSIASLAMAVIINGNEDDGSNVASGRSSMRLWGLVVCHHTSSRCIPFPLRYACEFLMQAFGLQLNMELQLALQMSEKRVLRTQTLLCDMLLRDSPAGIVTQSPSIMDLVKCDGAAFLYHGKYYPLGVAPSEVQIKDVVEWLLANHADSTGLSTDSLGDAGYPGAAALGDAVCGMAVAYITKRDFLFWFRSHTAKEIKWGGAKHHPEDKDDGQRMHPRSSFQAFLEVVKSRSQPWETAEMDAIHSLQLILRDSFKESEAAMNSKVVDGVVQPCRDMAGEQGIDELGAVAREMVRLIETATVPIFAVDAGGCINGWNAKIAELTGLSVEEAMGKSLVSDLIYKENEATVNKLLSRALRGDEEKNVEVKLKTFSPELQGKAVFVVVNACSSKDYLNNIVGVCFVGQDVTSQKIVMDKFINIQGDYKAIVHSPNPLIPPIFAADENTCCLEWNMAMEKLTGWSRSEVIGKMIVGEVFGSCCMLKGPDALTKFMIVLHNAIGGQDTDKFPFPFFDRNGKFVQALLTANKRVSLEGKVIGAFCFLQIPSPELQQALAVQRRQDTECFTKAKELAYICQVIKNPLSGMRFANSLLEATDLNEDQKQLLETSVSCEKQISRIVGDMDLESIEDGSFVLKREEFFLGSVINAIVSQAMFLLRDRGLQLIRDIPEEIKSIEVFGDQIRIQQLLAEFLLSIIRYAPSQEWVEIHLSQLSKQMADGFAAIRTEFRMACPGEGLPPELVRDMFHSSRWTSPEGLGLSVCRKILKLMNGEVQYIRESERSYFLIILELPVPRKRPLSTASGSGDMMLMMPY	binds
phyB-GFP ΔC holoprotein (Pichia pastoris purified) (domain or fragment, Arabidopsis, UniProt P14713 1-1092, looked up, holoprotein (chromophore bound), phytochrome B (phyB), Arabidopsis, residues 1-1092 (lacks the last 80 amino acids); source: Pichia pastoris, purified; not shown: GFP, C-terminal, kept) MVSGVGGSGGGRGGGRGGEEEPSSSHTPNNRRGGEQAQSSGTKSLRPRSNTESMSKAIQQYTVDARLHAVFEQSGESGKSFDYSQSLKTTTYGSSVPEQQITAYLSRIQRGGYIQPFGCMIAVDESSFRIIGYSENAREMLGIMPQSVPTLEKPEILAMGTDVRSLFTSSSSILLERAFVAREITLLNPVWIHSKNTGKPFYAILHRIDVGVVIDLEPARTEDPALSIAGAVQSQKLAVRAISQLQALPGGDIKLLCDTVVESVRDLTGYDRVMVYKFHEDEHGEVVAESKRDDLEPYIGLHYPATDIPQASRFLFKQNRVRMIVDCNATPVLVVQDDRLTQSMCLVGSTLRAPHGCHSQYMANMGSIASLAMAVIINGNEDDGSNVASGRSSMRLWGLVVCHHTSSRCIPFPLRYACEFLMQAFGLQLNMELQLALQMSEKRVLRTQTLLCDMLLRDSPAGIVTQSPSIMDLVKCDGAAFLYHGKYYPLGVAPSEVQIKDVVEWLLANHADSTGLSTDSLGDAGYPGAAALGDAVCGMAVAYITKRDFLFWFRSHTAKEIKWGGAKHHPEDKDDGQRMHPRSSFQAFLEVVKSRSQPWETAEMDAIHSLQLILRDSFKESEAAMNSKVVDGVVQPCRDMAGEQGIDELGAVAREMVRLIETATVPIFAVDAGGCINGWNAKIAELTGLSVEEAMGKSLVSDLIYKENEATVNKLLSRALRGDEEKNVEVKLKTFSPELQGKAVFVVVNACSSKDYLNNIVGVCFVGQDVTSQKIVMDKFINIQGDYKAIVHSPNPLIPPIFAADENTCCLEWNMAMEKLTGWSRSEVIGKMIVGEVFGSCCMLKGPDALTKFMIVLHNAIGGQDTDKFPFPFFDRNGKFVQALLTANKRVSLEGKVIGAFCFLQIPSPELQQALAVQRRQDTECFTKAKELAYICQVIKNPLSGMRFANSLLEATDLNEDQKQLLETSVSCEKQISRIVGDMDLESIEDGSFVLKREEFFLGSVINAIVSQAMFLLRDRGLQLIRDIPEEIKSIEVFGDQIRIQQLLAEFLLSIIRYAPSQEWVEIHLSQLSKQMADGFAAIRTEFRMACP	binds

Reference: paper PMC6746701, “A phyB-PIF1-SPA1 kinase regulatory complex promotes photomorphogenesis in Arabidopsis” (Nature Communications, 2019)
